Data as given in paper PMC3602430, “Identification of a Missing Link in the Evolution of an Enzyme into a Transcriptional Regulator” (PLoS ONE, 2013).

How the values were obtained:
[1] = target: Q1 chimera (NBzdRL fused to E. coli shikimate kinase I) (Azoarcus sp. CIB | E. coli) (UniProt P0A6D7); test: AUC; sedimentation velocity of purified His6-tagged proteins, c(s) distribution; s-value did not change significantly over 1-30 µM protein
[2] = target: T1, BzdR (CBzdR, C-terminal effector-binding domain); test: intrinsic protein fluorescence titration, one-site model; design: species or system Azoarcus sp. CIB
T1 construct: His6-CBzdR, residues 131–298

[3] = target: NBzdR, N-terminal DNA-binding domain of BzdR (Azoarcus sp. CIB); test: AUC; sedimentation equilibrium of the purified proteins in solution, data fitted to dimer and monomer species; sedimentation velocity showed single species (1.8 and 2.3 S); conditions not shown
[4] = target: NBzdRL, N-terminal domain of BzdR fused to its linker region (Azoarcus sp. CIB); test: as above
[5] = substrate: O=C(O)C1=C[C@@H](O)[C@@H](O)[C@H](O)C1; test: coupled pyruvate kinase/lactate dehydrogenase shikimate kinase assay (Km); format: biochemical, Escherichia coli; conditions: Mg2+, ATP

Q: With “Q1 chimera (NBzdRL fused to E. coli shikimate kinase I) (from UniProt P0A6D7 1-173)” as the molecule, how does the stoichiometry N [1] read?
A: Its stoichiometry N is 2.

Q: How did the Kd [2] turn out when `CC(C)(COP(=O)(O)OP(=O)(O)OC[C@H]1O[C@@H](n2cnc3c(N)ncnc32)[C@H](O)[C@@H]1OP(=O)(O)O)[C@@H](O)C(=O)NCCC(=O)NCCSC(=O)c1ccccc1` [benzoyl-CoA] was run?
A: Its Kd is 203 ± 35 µM.

Q: For “NBzdR, N-terminal DNA-binding domain of BzdR (domain or fragment)”, which stoichiometry N [3] is on record?
A: The stoichiometry N was 2.

Q: “NBzdRL, N-terminal domain of BzdR fused to its linker region (domain or fragment)” was tested. Which stoichiometry N [4] did it give?
A: Its stoichiometry N is 2.

B1: shikimate kinase I (SKI) (Escherichia coli K-12) (protein)
chain: AEKRNIFLVGPMGAGKSTIGRQLAQQLNMEFYDSDQEIEKRTGADVGWVFDLEGEEGFRDREEKVINELTEKQGIVLATGGGSVKSRETRNRLSARGVVVYLETTIEKQLARTQRDKKRPLLHVETPPREVLEALANERNPLYEEIADVTIRTDDQSAKVVANQIIHMLESN
notes: His6-SKI
Q: With B1 as the molecule, how does the Km [5] read?
A: Its Km is 400 µM.
